T1: OLD (OAS-like domain of OASL) wild type (Homo sapiens, UniProt Q15646 1-350)
T1 sequence: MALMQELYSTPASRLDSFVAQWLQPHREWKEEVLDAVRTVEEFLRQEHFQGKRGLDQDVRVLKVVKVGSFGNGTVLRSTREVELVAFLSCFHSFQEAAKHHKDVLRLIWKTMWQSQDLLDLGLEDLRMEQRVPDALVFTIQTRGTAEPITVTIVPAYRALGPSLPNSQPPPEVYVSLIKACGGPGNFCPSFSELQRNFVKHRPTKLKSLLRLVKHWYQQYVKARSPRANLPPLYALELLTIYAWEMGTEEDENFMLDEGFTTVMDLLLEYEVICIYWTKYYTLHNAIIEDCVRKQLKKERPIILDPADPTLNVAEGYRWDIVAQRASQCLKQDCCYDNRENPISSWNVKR


Tests used:
[1] = biological target: the molecule itself; assay: SEC; analytical, Superdex 200 PC3.2/30; OASL run in 50 mM Tris-HCl pH 9, 500 mM NaCl, 10% glycerol, 1.5 mM MgCl2, 1 M urea, 1 mM BME; calibrated with Blue Dextran and albumin
[2] = biological target: T1, OLD (OAS-like domain of OASL) wild type; assay: EMSA; OLD 2.4 uM, dsRNA 0-8.6 uM, protein stained; 1.5 mM Mg2+; 100 mM DL-malic acid pH 5.9, 200 (unit not given) Na2SO4, 300 mM NaCl, 1.5 mM MgCl2, 2 mM BME, 5% glycerol; 37 C 15 min; native PAGE in 0.5x TBE; details: protein: recombinant; tags: C-terminal 6xHis; blunt

Row | Binder | binding result [1] | binding result [2]
1 | full-length OASL (human 2'-5' oligoadenylate synthetase-like protein), recombinant from insect cells (natural protein, UniProt Q15646 1-514, looked up, human OASL, full length (printed as 61 kDa); OAS-like domain (residues 1-350) followed by two ubiquitin-like domains; also called OAS-like protein) MALMQELYSTPASRLDSFVAQWLQPHREWKEEVLDAVRTVEEFLRQEHFQGKRGLDQDVRVLKVVKVGSFGNGTVLRSTREVELVAFLSCFHSFQEAAKHHKDVLRLIWKTMWQSQDLLDLGLEDLRMEQRVPDALVFTIQTRGTAEPITVTIVPAYRALGPSLPNSQPPPEVYVSLIKACGGPGNFCPSFSELQRNFVKHRPTKLKSLLRLVKHWYQQYVKARSPRANLPPLYALELLTIYAWEMGTEEDENFMLDEGFTTVMDLLLEYEVICIYWTKYYTLHNAIIEDCVRKQLKKERPIILDPADPTLNVAEGYRWDIVAQRASQCLKQDCCYDNRENPISSWNVKRARDIHLTVEQRGYPDFNLIVNPYEPIRKVKEKIRRTRGYSGLQRLSFQVPGSERQLLSSRCSLAKYGIFSHTHIYLLETIPSEIQVFVKNPDGGSYAYAINPNSFILGLKQQIEDQQGLPKKQQQLEFQGQVLQDWLGLGIYGIQDSDTLILSKKKGEALFPAS | binds | –
2 | 18 bp dsRNA (dsRNA) RNA 1: GGCUUUUGACCUUUAUGC RNA 2: GCAUAAAGGUCAAAAGCC | – | binds

Reference: PMC4446440, “Structural and functional analysis reveals that human OASL binds dsRNA to enhance RIG-I signaling” (Nucleic Acids Research, 2015)
